# Legend:
# [1] = target: BS69 CC-MYND (Homo sapiens) (UniProt Q15326); settings: cited from earlier work
# [2] = target: BS69 coiled-coil MYND domain (BS69_(CC-MYND), amino acids 480-602) (human) (UniProt Q15326); assay: ITC; EBNA2 polypeptide (0.3 or 0.6 mM) titrated into 0.1 mM BS69_(CC-MYND) in the cell, 19 x 2.0 µl injections, 25°C, 20 mM Tris-HCl, 100 mM NaCl, 1 mM TCEP, pH 7.5; one-site (one event) model; n on monomer concentrations; mean of 3 experiments
# [3] = target: BS69 coiled-coil MYND domain (BS69_(CC-MYND), amino acids 480-602) (human) (UniProt Q15326); assay: ITC; EBNA2 polypeptide titrated into 0.1 mM BS69_(CC-MYND) in the cell, 19 x 2.0 μl injections, 25°C, 20 mM Tris-HCl, 100 mM NaCl, 1 mM TCEP, pH 7.5; one-site (one event) model; n calculated for monomeric proteins
# Chain of BS69 coiled-coil MYND domain (BS69_(CC-MYND), amino acids 480-602) (human) (Q15326 480-602): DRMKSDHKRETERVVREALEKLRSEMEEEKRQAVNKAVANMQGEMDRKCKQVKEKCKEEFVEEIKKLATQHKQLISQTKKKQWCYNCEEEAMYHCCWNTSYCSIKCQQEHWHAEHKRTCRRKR
# Chain of type 1 EBNA2 polypeptide T1 EBNA2_(381-445) (domain or fragment) (P12978 381-445): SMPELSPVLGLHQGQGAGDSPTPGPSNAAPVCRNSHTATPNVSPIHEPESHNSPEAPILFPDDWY
# Chain of BS69 CC-MYND (Homo sapiens) (Q15326 480-602): as the sequence (Q15326 480-602) above
# Chain of type 1 EBNA2 polypeptide T1 EBNA2_(381-455) (domain or fragment) (P12978 381-455): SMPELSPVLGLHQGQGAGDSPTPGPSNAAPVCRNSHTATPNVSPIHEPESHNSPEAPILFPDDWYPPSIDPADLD
substance,measurement,setting,value
EBNA2 type 1 motif 2 peptide motif 2 (from UniProt P12978),Kd,[1],35 µM
type 1 EBNA2 polypeptide T1 EBNA2_(381-455) (domain or fragment),stoichiometry N,[2],0.38
type 1 EBNA2 polypeptide T1 EBNA2_(381-445) (domain or fragment),Kd,[3],0.95 µM
same,stoichiometry N,[3],0.42
